This data set concerns the target T1, TON_1525 wild-type (putative transcriptional regulator) (Thermococcus onnurineus NA1) (UniProt B6YTS4).
T1 sequence: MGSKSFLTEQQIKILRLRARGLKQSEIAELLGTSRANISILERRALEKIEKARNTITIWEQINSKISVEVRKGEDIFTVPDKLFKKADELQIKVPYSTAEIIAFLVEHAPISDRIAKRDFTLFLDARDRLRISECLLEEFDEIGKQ
Nature of the data set: EMSA. The note with it: EMSA: 100 nM DNA, 20 mM Tris-HCl, 200 mM KCl, 1 mM EDTA, 5% glycerol, pH 7.5, 80 C for 10 min; 5% native PAGE. (In general: Mobility shift assays separate free from complexed probe on a gel.)

Take “GAGAGTTTTACTGTCTCTAAATGAAAGGTTCTAATACGGTGGATCGAATAATTTCTTGCGTTTTTATCCGGATCGCCGAACACGATTCCATCTTAAAATCTTTTTGTTTACATTATACGAGGTGATCAACAATGCCAGCTTTTTCCGGTT (double strand) [CODH promoter 150-bp probe]”: the binding result is listed as “binds”.

Source of the values: publication PMC4791640.
